In US20120165204A1 (UNIVERSITY OF NORTH CAROLINA AT CHAPEL HILL, published 2012):

Biological target: T1, 546-4 T17N (LOV2 carries non-covalent FMN; the Rac1 C-terminal CAAX box may be prenylated and trimmed in cells)
T1 construct: only the lane label names it
Assay: pull-down (CoIP) with FLAG-tagged PAK1 co-expressed in HEK 293 cells, FLAG/M2-agarose, in the dark; Western blot
Protocol: The cells were lysed in 50 mM Tris pH 7.5, 150 mM NaCl, and 1% Triton X-100 (lysis buffer) with addition of EDTA-free protease inhibitor cocktail (Roche). After brief centrifugation, the supernatants were incubated with FLAG/M2-agarose (Sigma) followed by washes with lysis buffer, and elution with lysis buffer containing 200 μg/ml 3× FLAG peptide (Sigma). All procedures were done at 4° C. under red light, facilitated using Handee spin columns (Pierce).

B1: FLAG-tagged PAK1 (enzyme, UniProt Q13153 1-545, looked up)
chain: MSNNGLDIQDKPPAPPMRNTSTMIGAGSKDAGTLNHGSKPLPPNPEEKKKKDRFYRSILPGDKTNKKKEKERPEISLPSDFEHTIHVGFDAVTGEFTGMPEQWARLLQTSNITKSEQKKNPQAVLDVLEFYNSKKTSNSQKYMSFTDKSAEDYNSSNALNVKAVSETPAVPPVSEDEDDDDDDATPPPVIAPRPEHTKSVYTRSVIEPLPVTPTRDVATSPISPTENNTTPPDALTRNTEKQKKKPKMSDEEILEKLRSIVSVGDPKKKYTRFEKIGQGASGTVYTAMDVATGQEVAIKQMNLQQQPKKELIINEILVMRENKNPNIVNYLDSYLVGDELWVVMEYLAGGSLTDVVTETCMDEGQIAAVCRECLQALEFLHSNQVIHRDIKSDNILLGMDGSVKLTDFGFCAQITPEQSKRSTMVGTPYWMAPEVVTRKAYGPKVDIWSLGIMAIEMIEGEPPYLNENPLRALYLIATNGTPELQNPEKLSAIFRDFLNRCLEMDVEKRGSAKELLQHQFLKIAKPLSSLTPLIAAAKEATKNNH
notes: Bait of the pull-down assays (FLAG/M2-agarose); not shown: FLAG tag
binding result: no binding
